These results are taken from the supplement of paper PMC9170038.

This series deals with MS2 coat protein. The series is described as follows: apparent KD of MS2 coat protein; higher = weaker reporter binding. As to conditions: Eterna round: R107. The gist of the method: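 Designed RNA switches were made by on-chip transcription from Illumina sequencing clusters and then titrated with SNAP-549-labelled MS2 coat protein. Twofold steps ran from 0.7 or 1.5 nM to 3 µM, each lasting 0.8–1.5 h early and 10–20 min late, in 100 mM Tris-HCl pH 7.5, 80 mM KCl, 4 mM MgCl2, without or with constant ligand. Apparent KD is the per-design median of normalised cluster binding-curve fits.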

The mark [1] stands for this setting: input ligand: theophylline 20 uM.
The mark [2] stands for this setting: input ligand: tryptophan 2.4 mM.
Where [3] appears, read: input ligand: theophylline 2 mM.

For the sequence “CAAACAUGAGGAUCACCCAUGUAAUCAGAUACCAGUGACGAAAGUCACCCUUGGCAGCUGAGUACAUUAGUUCUAAGGUGUUUGA [EThA NP+V+V2 #6 +-Same Structure]”, the “apparent KD of MS2 coat protein” value is, setting by setting: (input ligand: arginine 13.2 mM) 32.7 nM; under setting [1], 61 nM; under setting [2], 35.7 nM.
For the sequence “CAAUAUAUAGCGGCCGCCACUUACUCAUGAGGUAACAACAUGAGGAUCACCCAUGUUUGAGGAUCAAGGACCGGGCUAUAUAUUG [AstrosSSTryB#6]”, the “apparent KD of MS2 coat protein” value by setting is: (input ligand: arginine 13.2 mM) 22.2 nM; under setting [1], 31.9 nM; under setting [3], 32.2 nM.
Take “CACAUGAGGAUCACCCAUGUCUGAACUGAAGGAGCGCUAAACAAGGCAGGUAGGUCGCGGAAUCCCGGGUGCAUAUGCACCCGGG [9.aA]”: the “apparent KD of MS2 coat protein” value (input ligand: arginine 13.2 mM) is 50.4 nM; the “apparent KD of MS2 coat protein” value (input ligand: none) came out at 23.9 nM; the “apparent KD of MS2 coat protein” value under setting [1] was determined as 23.2 nM; the “apparent KD of MS2 coat protein” value under setting [3] worked out at 23.4 nM; the “apparent KD of MS2 coat protein” value under setting [2] stood at 21.4 nM.
Consider “CACGAAAGAUCGGCCGCCACUAACCUGUGUGUACUAGCACAUGAGGAUCACCCAUGUUCUUGCGUUAGGACCGGGAUUGAGCGUG [#04 Exclusion Tryptophan B]”, for which the “apparent KD of MS2 coat protein” value is, setting by setting: (input ligand: arginine 13.2 mM) 20.9 nM; under setting [1], 30.7 nM; under setting [3], 27.5 nM.
For “CACGGAAGAGUGGAUCACCCUCUUAAUAAACGAGGACCGGUACGGCCGCCACUCGAAAACCGUGACCUGUACGAAAAGUGCAGGA”, the “apparent KD of MS2 coat protein” value came out at 31.3 nM (input ligand: arginine 13.2 mM); 39.4 nM (input ligand: none); 202 nM under setting [1]; 437 nM under setting [3]; 127 nM under setting [2].
Regarding “CAGCAACAAUUGGAUACCAGCCAUUACAGGUAUCAUUAUAACAUGAGGAUCACCCAUGUAGGCCCUUGGCAGCCAUUGGUGUAAG [theeternabot_exclusion_MS2_Theo_B_22]”, the “apparent KD of MS2 coat protein” value was determined as 27.5 nM (input ligand: arginine 13.2 mM), 69 nM under setting [1] and 40.5 nM under setting [2].
For “CAGCCUGAUUGGUAAAUCCCUCAUCGUGAUACCAGUCGAGUGAUCGACCCUUGGCAGCACAUGAGGAUCACCCAUGUGCGCGUAA [Raisener]”, in that order: 22 nM, 34.9 nM and 24 nM.
The matching figures for “CAUACUUUAGUAUGUAAUGUGGACAGUGAUACCAGAUACGAAAGUAUCCCUUGGCAGCACAACAUGAGGAUCACCCAUGUAUUUU [Theophylline A 3]”: 20.9 nM, 20 nM and 19.2 nM.
On to “CAUACUUUAUCCUAUGAGCCUAUUUGUGAUACCAGCAUCUAAAUUUGCCCUUGGCAGCACUUACAUGAGGAUCACCCAUGUUUUA [JR_NU_SSTheophyA_Sub028]”, for which the “apparent KD of MS2 coat protein” value runs as follows: (input ligand: arginine 13.2 mM) 22 nM; under setting [1], 33.6 nM; under setting [2], 24 nM.
On to “CAUGGCUGUGCGGCCGCCACUGGCUCAUCCUGCAUUACAUGAGGAUCACCCAUGUUGCGGCCUCCCAGGACCGGGCAUAGCCUGA [Abediat]”, for which the “apparent KD of MS2 coat protein” value (input ligand: arginine 13.2 mM) was 39.5 nM, the “apparent KD of MS2 coat protein” value under setting [1] turned out to be 511 nM and the “apparent KD of MS2 coat protein” value under setting [3] came to 571 nM.
“CAUGGGUGGGUGCUGCCACCCAUUGGUGAUACCAGCAUCGAAAGAUGCCCUUGGCAGCACCAACAUGAGGAUCACCCAUGUAAUA [(M)'-(T)'-(M)''-(T1)-(T2)-(M1)-(M2)_Design4]”: the “apparent KD of MS2 coat protein” value reads like this: (input ligand: arginine 13.2 mM) 58.6 nM; under setting [1], 145 nM; under setting [2], 67.8 nM.
Take “CAUGGGUGGUAUCACCCAUCCAUAGGUGAUACCAGCAUCGAAAGAUGCCCUUGGCAGCACCAACAUGAGGAUCACCCAUGUAAUA [(M)'-(T)'-(M)''-(T1)-(T2)-(M1)-(M2)_Design2]”: the “apparent KD of MS2 coat protein” value is 48.1 nM (input ligand: arginine 13.2 mM), 189 nM under setting [1] and 354 nM under setting [2].
“CCAUAGGGUAAAUACAUAAUCAUAUCUGAAGGAGCGUGGAUAAACACAGGUAGGUCGCAGAAUCACAUGAGGAUCACCCAUGUCU [Same State Arginine A GF11]”: the “apparent KD of MS2 coat protein” value (input ligand: arginine 13.2 mM) stood at 24.5 nM; the “apparent KD of MS2 coat protein” value (input ligand: none) came out at 36.1 nM; the “apparent KD of MS2 coat protein” value under setting [1] amounted to 53.5 nM; the “apparent KD of MS2 coat protein” value under setting [3] worked out at 52.6 nM; the “apparent KD of MS2 coat protein” value under setting [2] stood at 36.5 nM.
With “CCAUGCAGGUCGGCCGCCACUACACACAUGAGGAUCACCCAUGUAGUUACUGGGUGAAGUGGCAGUAGGACCGGGACCUGCAUAU [Brourdmod11]”, the “apparent KD of MS2 coat protein” value runs as follows: (input ligand: arginine 13.2 mM) 94.5 nM; (input ligand: none) 284 nM; under setting [1], 330 nM; under setting [3], 504 nM; under setting [2], 1020 nM.
With “CCCGUAAAGGCGGCCGCCACUGUAUGACAUGAGGAUCACCCAUGUAGGGAAAAUGCGAUGGUCGUCAGGACCGGGCCUCUGGCAU [theeternabot_exclusion_MS2_Trp_B_5]”, the “apparent KD of MS2 coat protein” value reads like this: (input ligand: arginine 13.2 mM) 17.4 nM; under setting [1], 29.3 nM; under setting [3], 28.2 nM.
Take “CCUAUGACAUGAGGAUCACCCAUGUUGGAUACCAGCGCAUGAGGACGCCCUUGGCAGCCAAUGAACAUGAGGAUACAUGAGGAUC [Same State Theophylline A 4]”: the “apparent KD of MS2 coat protein” value was found to be 30.2 nM (input ligand: arginine 13.2 mM), 69.7 nM under setting [1] and 41.6 nM under setting [2].
Take “CCUAUGCAGUCGGCCGCCACUGAAAUAAAUUAUAUUACCUCAGAAACAUGAGGAUCACCCAUGUACAGGACCGGGACUGUAUAGG [Ex Tryptophan B 15]”: the “apparent KD of MS2 coat protein” value (input ligand: arginine 13.2 mM) worked out at 26 nM; the “apparent KD of MS2 coat protein” value (input ligand: none) stood at 35.3 nM; the “apparent KD of MS2 coat protein” value under setting [1] is 44.2 nM; the “apparent KD of MS2 coat protein” value under setting [3] was determined as 26.2 nM; the “apparent KD of MS2 coat protein” value under setting [2] is 56.3 nM.
In the case of “CCUAUGCAGUCGGCCGCCACUGAAAUCAAUAAGAUUACCUCAGAAACAUGAGGAUCACCCAUGUACAGGACCGGGACUGUAUAGG [Ex Tryptophan B 16]”, the “apparent KD of MS2 coat protein” value reads like this: (input ligand: arginine 13.2 mM) 20.6 nM; (input ligand: none) 40 nM; under setting [1], 41.8 nM; under setting [3], 37.2 nM; under setting [2], 84.3 nM.
The matching figures for “CCUAUGCAGUCGGCCGCCACUGAACAUGAGGAUCACCCAUGUUUUUAUAAAUAUGGUCCUAUAAUCAGGACCGGGACUGUAUAGG [Ex Tryptophan B 9]”: 38.3 nM, 69.2 nM, 59.7 nM, 64.6 nM and 69.2 nM.
Regarding “CCUGGACAUGAGGAUCACCCAUGUGAGGAUACCAGAUAUCCUGAUAUCCCUUGGCAGCCUCAUUACUUCGCAUUACCGAAACUUC [theeternabot_sameState_MS2_Theo_A_35]”, the “apparent KD of MS2 coat protein” value runs as follows: (input ligand: arginine 13.2 mM) 31.1 nM; under setting [1], 166 nM; under setting [2], 57.1 nM.
Turning to “CGAAAGCACAUGGGUUGCUUUCGACUGGAAGGAGCGAGCGAAAGCUCAGGUAGGUCGCCAGAAACAUGAGGAUCACCCAUGUAAU [(A)''-(M)'-(A)'(Arg1)-(Arg2)-(M1)-(M2)_Design10]”, the “apparent KD of MS2 coat protein” value (input ligand: arginine 13.2 mM) is 21.6 nM; the “apparent KD of MS2 coat protein” value (input ligand: none) was 18.3 nM; the “apparent KD of MS2 coat protein” value under setting [1] turned out to be 27.4 nM; the “apparent KD of MS2 coat protein” value under setting [3] is 21.3 nM; the “apparent KD of MS2 coat protein” value under setting [2] was 22.4 nM.
Regarding “CGAUCUUUCGAAAGAAGGAUCGAGUCUGAUACCAGAGACGAAAGUCUCCCUUGGCAGCAGUGCCAACAUGAGGAUCACCCAUGUA [Theophylline A 9]”, the “apparent KD of MS2 coat protein” value is, setting by setting: (input ligand: arginine 13.2 mM) 20.7 nM; under setting [1], 26.3 nM; under setting [2], 18.9 nM.
The matching figures for “CGAUCUUUCGAAAGAAGGAUCGAUUCUGAUACCAGAGACGAAAGUCUCCCUUGGCAGCAGUGCCAACAUGAGGAUCACCCAUGUA [Theophylline A 8]”: 26.4 nM, 26 nM and 23.6 nM.
In the case of “CGCAACAUGAGGAUCACCCAUGUAAUGACGCGAGGACCGGUACGGCCGCCACUCGCCUGGCAGUGAGCGCAUGCGGCCUGGGUAU [Exclusion Tryp A GF8]”, the “apparent KD of MS2 coat protein” value turned out to be 10.6 nM (input ligand: arginine 13.2 mM), 16.5 nM under setting [1] and 14.3 nM under setting [3].
For “CGCCACAUGAGGAUCACCCAUGUCUUGGCGCGAGGACCGGUACGGCCGCCACUCGCGUUUCAGUGAGCGCAUGCGUCCUUGGUAU [Exclusion Tryp A GF10]”, in that order: 16.8 nM, 27 nM and 20.3 nM.
“CGCGGGCCACAUGAGGAUCACCCAUGUGAAGGAGCGGCGAAUAAGCCAGGUAGGUCGCGCAUGAAUAAAUCAUGUAGGUGGCGAA [XArg-A 10 V1&2]”: the “apparent KD of MS2 coat protein” value is 16.4 nM (input ligand: arginine 13.2 mM), 22.8 nM under setting [1], 21.6 nM under setting [3] and 20.2 nM under setting [2].
